Columns and labels:
[1] = value used in equation 1; cited from earlier work
[2] = RP-HPLC MAG-Tn3 content before and after 0.2 μm filtration; type: physicochemical; details: L-arginine-L-arginine-mono-hydrochloride buffer system
Protocol: RP-HPLC was performed to assess MAG-Tn3 content in the formulations before and after filtration with a 0.2 μm syringe filter. A Waters 2996 HPLC equipped with UV detection was used with a Poros R 1/10 column from Applied Biosciences and a 0-100% acetonitrile in 0.1% triflouroacetic acid gradient. Size-exclusion chromatography was performed using a Waters 2996 HPLC equipped with a fluorescence detector (Waters) to assess the aggregation profiles of the resulting formulations using a TSKgel G3000PWxl column (Tosoh Bioscience LLC) and a mobile phase of 200 mM NaCl. SDS-PAGE analysis was done using 4-12% Bis-Tris gels (Invitrogen) and MES running buffer (Invitrogen). The gels were stained using Invitrogen's SilverQuest. Centrifuged and non-centrifuged samples were run on gel to assess the presence of precipitate in the formulations. Centrifugation was performed for 15 minutes at 18 000 g. […]
RP-HPLC was performed to assess MAG-Tn3 content in the formulations before and after filtration with a 0.2 μm syringe filter. […] Size-exclusion chromatography was performed using a Waters 2996 HPLC equipped with a fluorescence detector (Waters) to assess the aggregation profiles of the resulting formulations using a TSKgel G3000PWxl column (Tosoh Bioscience LLC) and a mobile phase of 200 mM NaCl. […]

| SMILES | pKa [1] | dose up to which MAG-Tn3 appears soluble ([2]; with CpG7909) | solubility ([2]; with CpG7909, final reconstituted vaccine, read-out: concentration up to which MAG-Tn3 appears soluble) |
| --- | --- | --- | --- |
| N=C(N)NCCC[C@H](N)C(=O)O [Arginine] | molar ratios of Arg:ArgHCl (Arg pKa = 8.991). | – | – |
| CC[C@H](C)[C@H](NC(=O)CNC(=O)[C@@H](NC(=O)[C@H](Cc1ccccc1)NC(=O)[C@H](CCCCN)NC(=O)[C@H](CO)NC(=O)[C@H](CC(N)=O)NC(=O)[C@H](C)NC(=O)[C@H](CCCCN)NC(=O)[C@@H](NC(=O)[C@H](Cc1ccc(O)cc1)NC(=O)[C@H](CCC(N)=O)NC(=O)C(NC(=O)C(NC(=O)C(N)CO[C@H]1O[C@H](CO)[C@H](O)[C@H](O)[C@H]1NC(C)=O)C(C)O[C@H]1O[C@H](CO)[C@H](O)[C@H](O)[C@H]1NC(C)=O)C(C)O[C@H]1O[C@H](CO)[C@H](O)[C@H](O)[C@H]1NC(C)=O)[C@@H](C)CC)[C@@H](C)CC)C(=O)N[C@H](C(=O)N[C@@H](CCC(=O)O)C(=O)N[C@@H](CC(C)C)C(=O)NCCCC[C@H](NC(=O)[C@H](CC(C)C)NC(=O)[C@H](CCC(=O)O)NC(=O)[C@@H](NC(=O)[C@@H](NC(=O)CNC(=O)[C@@H](NC(=O)[C@H](Cc1ccccc1)NC(=O)[C@H](CCCCN)NC(=O)[C@H](CO)NC(=O)[C@H](CC(N)=O)NC(=O)[C@H](C)NC(=O)[C@H](CCCCN)NC(=O)[C@@H](NC(=O)[C@H](Cc1ccc(O)cc1)NC(=O)[C@H](CCC(N)=O)NC(=O)C(NC(=O)C(NC(=O)C(N)CO[C@H]1O[C@H](CO)[C@H](O)[C@H](O)[C@H]1NC(C)=O)C(C)O[C@H]1O[C@H](CO)[C@H](O)[C@H](O)[C@H]1NC(C)=O)C(C)O[C@H]1O[C@H](CO)[C@H](O)[C@H](O)[C@H]1NC(C)=O)[C@@H](C)CC)[C@@H](C)CC)[C@@H](C)CC)[C@@H](C)O)C(=O)NCCCC[C@H](NC(=O)[C@H](CCCCNC(=O)[C@H](CC(C)C)NC(=O)[C@H](CCC(=O)O)NC(=O)[C@@H](NC(=O)[C@@H](NC(=O)CNC(=O)[C@@H](NC(=O)[C@H](Cc1ccccc1)NC(=O)[C@H](CCCCN)NC(=O)[C@H](CO)NC(=O)[C@H](CC(N)=O)NC(=O)[C@H](C)NC(=O)[C@H](CCCCN)NC(=O)[C@@H](NC(=O)[C@H](Cc1ccc(O)cc1)NC(=O)[C@H](CCC(N)=O)NC(=O)C(NC(=O)C(NC(=O)C(N)CO[C@H]1O[C@H](CO)[C@H](O)[C@H](O)[C@H]1NC(C)=O)C(C)O[C@H]1O[C@H](CO)[C@H](O)[C@H](O)[C@H]1NC(C)=O)C(C)O[C@H]1O[C@H](CO)[C@H](O)[C@H](O)[C@H]1NC(C)=O)[C@@H](C)CC)[C@@H](C)CC)[C@@H](C)CC)[C@@H](C)O)NC(=O)[C@H](CC(C)C)NC(=O)[C@H](CCC(=O)O)NC(=O)[C@@H](NC(=O)[C@@H](NC(=O)CNC(=O)[C@@H](NC(=O)[C@H](Cc1ccccc1)NC(=O)[C@H](CCCCN)NC(=O)[C@H](CO)NC(=O)[C@H](CC(N)=O)NC(=O)[C@H](C)NC(=O)[C@H](CCCCN)NC(=O)[C@@H](NC(=O)[C@H](Cc1ccc(O)cc1)NC(=O)[C@H](CCC(N)=O)NC(=O)C(NC(=O)C(NC(=O)C(N)CO[C@H]1O[C@H](CO)[C@H](O)[C@H](O)[C@H]1NC(C)=O)C(C)O[C@H]1O[C@H](CO)[C@H](O)[C@H](O)[C@H]1NC(C)=O)C(C)O[C@H]1O[C@H](CO)[C@H](O)[C@H](O)[C@H]1NC(C)=O)[C@@H](C)CC)[C@@H](C)CC)[C@@H](C)CC)[C@@H](C)O)C(=O)NCCC(=O)O)[C@@H](C)O (stereo partly drawn) [MAG-Tn3] | – | ≤ 450 μg/dose | ≤ 900 µg/mL |
